From patent US10472401B2, “Peptides and combination of peptides for use in immunotherapy against ovarian cancer and other cancers” (immatics biotechnologies GmbH, priority 2015, dated 2019) come the findings set out here.

The test addresses HLA-A*02:01 (Homo sapiens, UniProt P04439, D140Y/D185E/D98H/E176V/E277Q/G131W/G231S/I119V/I121R/I166T/I218V/L300P/L318F/N151K/N90K/P208A/P217A/Q86G/Q94H/R138H/R169H/T345S). Briefly: MHC binding assay (UV-ligand exchange, ELISA of stabilized MHC complexes). The note with it: MHC class I binding score; binding to HLA-A*02:01 ranged by peptide exchange yield (UV-ligand exchange, ELISA). An outline of the steps:
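Peptide-MHC complexes made by UV-ligand exchange, cleaving a UV-sensitive placeholder peptide and replacing it with the test peptide. Exchange yield measured by ELISA: streptavidin-captured monomers (diluted 100-fold, 1 h, 37 °C) detected with HRP anti-β2m and TMB, absorbance at 450 nm.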
(An ELISA detects its analyte on a solid surface through an enzyme-linked reagent.)
For “144 (YIMEPSIFNTL; listed as Homo sapiens) [compound 144]”, the Peptide exchange result is given as “″+++″ (≥50% = +++)”.

In the case of “145 (FLATSGTLAGI; listed as Homo sapiens) [compound 145]”, the Peptide exchange result is listed as “″++″ (≥20% = ++)”. Under “146 (SLATAGDGLIEL; listed as Homo sapiens) [compound 146]” stands “″++″ (≥20% = ++)”.

Turning to “147 (SLLEAVSFL; listed as Homo sapiens) [compound 147]”, the Peptide exchange entry was “″+++″ (≥50% = +++)”.

As to “148 (ALNPEIVSV; listed as Homo sapiens) [compound 148]”, the Peptide exchange entry was “″++″ (≥20% = ++)”. To “149 (NLLELFVQL; listed as Homo sapiens) [compound 149]” belongs “″+++″ (≥50% = +++)”; to “151 (KILQQLVTL; listed as Homo sapiens) [compound 151]”, “″+++″ (≥50% = +++)”; to “152 (ILFEDIFDV; listed as Homo sapiens) [compound 152]”, “″+++″ (≥50% = +++)”. On to “153 (FLIANVLYL; listed as Homo sapiens) [compound 153]”, for which the Peptide exchange result is “″+″ (≥10% = +)”. For “154 (ALDDGTPAL; listed as Homo sapiens) [compound 154]”, the Peptide exchange entry is listed as “″++″ (≥20% = ++)”. To “155 (RVANLHFPSV; listed as Homo sapiens) [compound 155]” belongs “″+++″ (≥50% = +++)”; to “157 (SLNDEVPEV; listed as Homo sapiens) [compound 157]”, “″++″ (≥20% = ++)”.

Consider “158 (KLFDVDEDGYI; listed as Homo sapiens) [compound 158]”, for which the Peptide exchange result is recorded as “″+++″ (≥50% = +++)”.

Take “159 (GLVGNPLPSV; listed as Homo sapiens) [compound 159]”: the Peptide exchange result is reported as “″++++″ (≥75% = ++++)”.

“160 (FLFDEEIEQI; listed as Homo sapiens) [compound 160]”: the Peptide exchange result is given as “″+++″ (≥50% = +++)”.

On to “161 (ALLEGVNTV; listed as Homo sapiens) [compound 161]”, for which the Peptide exchange result is listed as “″+++″ (≥50% = +++)”. To “162 (YQQAQVPSV; listed as Homo sapiens) [compound 162]” belongs “″+++″ (≥50% = +++)”; to “163 (ALDEMGDLLQL; listed as Homo sapiens) [compound 163]”, “″+++″ (≥50% = +++)”; to “164 (ALLPQPKNLTV; listed as Homo sapiens) [compound 164]”, “″+++″ (≥50% = +++)”. Under “165 (SLLDEIRAV; listed as Homo sapiens) [compound 165]” stands “″+++″ (≥50% = +++)”; under “167 (KVLEVTEEFGV; listed as Homo sapiens) [compound 167]”, “″+++″ (≥50% = +++)”; under “168 (KILDADIQL; listed as Homo sapiens) [compound 168]”, “″++++″ (≥75% = ++++)”.

With “169 (NLPEYLPFV; listed as Homo sapiens) [compound 169]”, the Peptide exchange entry is given as “″+++″ (≥50% = +++)”. Consider “170 (RLQETLSAA; listed as Homo sapiens) [compound 170]”, for which the Peptide exchange entry is on record as “″+++″ (≥50% = +++)”. In the case of “171 (LLLPLQILL; listed as Homo sapiens) [compound 171]”, the Peptide exchange result is reported as “″+++″ (≥50% = +++)”. To “172 (VLYSYTIITV; listed as Homo sapiens) [compound 172]” belongs “″++″ (≥20% = ++)”; to “173 (LLDSASAGLYL; listed as Homo sapiens) [compound 173]”, “″+++″ (≥50% = +++)”; to “174 (ALAQYLITA; listed as Homo sapiens) [compound 174]”, “″+++″ (≥50% = +++)”. Regarding “175 (YLFENISQL; listed as Homo sapiens) [compound 175]”, the Peptide exchange result is given as “″+++″ (≥50% = +++)”. Under “176 (YLMEGSYNKVFL; listed as Homo sapiens) [compound 176]” stands “″++″ (≥20% = ++)”; under “177 (YLLPEEYTSTL; listed as Homo sapiens) [compound 177]”, “″++++″ (≥75% = ++++)”; under “178 (ALTEIAFVV; listed as Homo sapiens) [compound 178]”, “″++++″ (≥75% = ++++)”. Under “179 (KVLNELYTV; listed as Homo sapiens) [compound 179]” stands “″+++″ (≥50% = +++)”; under “180 (FQIDPHSGLVTV; listed as Homo sapiens) [compound 180]”, “″++″ (≥20% = ++)”. Consider “181 (LLWAGTAFQV; listed as Homo sapiens) [compound 181]”, for which the Peptide exchange result was “″+++″ (≥50% = +++)”. Regarding “182 (MLLEAPGIFL; listed as Homo sapiens) [compound 182]”, the Peptide exchange result is “″+++″ (≥50% = +++)”. Under “183 (FGLDLVTEL; listed as Homo sapiens) [compound 183]” stands “″+++″ (≥50% = +++)”; under “184 (YLMDINGKMWL; listed as Homo sapiens) [compound 184]”, “″+++″ (≥50% = +++)”; under “185 (FLIDDKGYTL; listed as Homo sapiens) [compound 185]”, “″++″ (≥20% = ++)”. Under “186 (TLFFQQNAL; listed as Homo sapiens) [compound 186]” stands “″++″ (≥20% = ++)”; under “187 (RQISIRGIVGV; listed as Homo sapiens) [compound 187]”, “″+++″ (≥50% = +++)”. To “188 (GLFPVTPEAV; listed as Homo sapiens) [compound 188]” belongs “″+++″ (≥50% = +++)”; to “189 (ALQRKLPYV; listed as Homo sapiens) [compound 189]”, “″+++″ (≥50% = +++)”; to “190 (FLSSLTETI; listed as Homo sapiens) [compound 190]”, “″+++″ (≥50% = +++)”. As to “191 (LLQEGQALEYV; listed as Homo sapiens) [compound 191]”, the Peptide exchange result is listed as “″++″ (≥20% = ++)”.

As for “192 (KMLDGASFTL; listed as Homo sapiens) [compound 192]”, the Peptide exchange entry is “″+++″ (≥50% = +++)”. To “193 (QLLDADGFLNV; listed as Homo sapiens) [compound 193]” belongs “″+++″ (≥50% = +++)”. Under “194 (ALPLFVITV; listed as Homo sapiens) [compound 194]” stands “″+++″ (≥50% = +++)”. On to “195 (GLFADLLPRL; listed as Homo sapiens) [compound 195]”, for which the Peptide exchange result is listed as “″+++″ (≥50% = +++)”. “196 (YLYSVEIKL; listed as Homo sapiens) [compound 196]”: the Peptide exchange entry is on record as “″++++″ (≥75% = ++++)”.

As for “197 (ALGPEGGRV; listed as Homo sapiens) [compound 197]”, the Peptide exchange result is “″++″ (≥20% = ++)”. Regarding “198 (KTINKVPTV; listed as Homo sapiens) [compound 198]”, the Peptide exchange result is “″+++″ (≥50% = +++)”. For “200 (LLFGSVQEV; listed as Homo sapiens) [compound 200]”, the Peptide exchange entry is recorded as “″+++″ (≥50% = +++)”. As to “201 (RLVDYLEGI; listed as Homo sapiens) [compound 201]”, the Peptide exchange entry is listed as “″+++″ (≥50% = +++)”.

For “202 (ALLDQQGSRWTL; listed as Homo sapiens) [compound 202]”, the Peptide exchange result was “″+++″ (≥50% = +++)”. Under “204 (KIAENVEEV; listed as Homo sapiens) [compound 204]” stands “″++″ (≥20% = ++)”; under “205 (SLYPGTETMGL; listed as Homo sapiens) [compound 205]”, “″+++″ (≥50% = +++)”.

On to “206 (VLQEGKLQKLAQL; listed as Homo sapiens) [compound 206]”, for which the Peptide exchange result was “″+++″ (≥50% = +++)”. Take “207 (GLTSTNAEV; listed as Homo sapiens) [compound 207]”: the Peptide exchange entry is given as “″++″ (≥20% = ++)”.

As to “208 (KISPVTFSV; listed as Homo sapiens) [compound 208]”, the Peptide exchange entry is “″+++″ (≥50% = +++)”. Take “209 (KLIESKHEV; listed as Homo sapiens) [compound 209]”: the Peptide exchange entry is reported as “″++″ (≥20% = ++)”.

For “210 (LLLNAVLTV; listed as Homo sapiens) [compound 210]”, the Peptide exchange result was “″++″ (≥20% = ++)”. To “211 (LLWPGAALL; listed as Homo sapiens) [compound 211]” belongs “″++″ (≥20% = ++)”. “212 (ALWDQDNLSV; listed as Homo sapiens) [compound 212]”: the Peptide exchange result is “″++″ (≥20% = ++)”.

Turning to “214 (FLLDLDPLLL; listed as Homo sapiens) [compound 214]”, the Peptide exchange result is listed as “″+++″ (≥50% = +++)”. Under “215 (QLINHLHAV; listed as Homo sapiens) [compound 215]” stands “″+++″ (≥50% = +++)”; under “216 (NLWEDPYYL; listed as Homo sapiens) [compound 216]”, “″+++″ (≥50% = +++)”. To “217 (ALIHPVSTV; listed as Homo sapiens) [compound 217]” belongs “″++″ (≥20% = ++)”; to “218 (SALEELVNV; listed as Homo sapiens) [compound 218]”, “″++″ (≥20% = ++)”. As for “219 (KLSDIGITV; listed as Homo sapiens) [compound 219]”, the Peptide exchange result is listed as “″+++″ (≥50% = +++)”.
